{"source": "patent US20230340555A1", "about": "“PRODUCTION OF GLYCOSYLATED CANNABINOIDS” (WILLOW BIOSCIENCES, INC., priority 2020, published 2023)", "molecules": {"B1": {"name": "CsUGT75D1-DN11028: UDP-glycosyl transferase from Cannabis sativa, amino acid sequence SEQ ID NO: 38 (protein, listed as Cannabis sativa)", "chain": "MKRTLLFIPSPGIGHLVSMLEFAKRLIQYDDRLFITILSMKFPNHDAYINSLVPSLSQSRVKLAHLPQVDPPPPKLLNSPESYIYVYVESLVPHVRDALKHIVPSHSNSETTHSQGCFVMVLDFFCMPMMDVANELGLPSYMFMPSNIGFLSSMLYLATRHDQISSELKESNPDEYSLKSFHNPVPWSALPQAYFCKDGGYSACVKMAQRFRETKGIIVNSFEGLEAHGATSFNDGETPPIYMVGPVVNFKGQPHSSTDHVQNNRIFKWLDEQPQSSVVFLCFASLGTFDASQLREIASGLECSGHRFLWCIRVQQPTIIDEILPEGFLERIGSKGMICNEWTPQVEVLAHNAVGGFVSHCGWNSILESLWYGVPIVTWPVYAEQQLNAFQMVREFDLAIELRLDYRNRGHNQLVTAEEIGNAIKKLMEGDHNVVMRKKGASGISSMVLSRFYTCKENVVLRQDPRWFAIKAGGEEK"}, "B2": {"name": "CsUGT71 D1-DN48028: UDP-glycosyl transferase from Cannabis sativa, amino acid sequence SEQ ID NO: 40 (protein, listed as Cannabis sativa)", "chain": "MARVELVFIPAPAIGHLVSTLEFAKRLIHYDHRLFITVLCEFSLKSHLDAYIDSLVASLSLAHRIKLVHLPLVDSPPVELLKSIENFIYQYMESLVPHVRKALTDIVSSNSNYSQGDVVLVLDFFCMPMMDVANELGLPSYMFMTSNLGLLSLMFYLATRHNQISSELEESDAPLRLQGFQNPVPSSVLPTAAFCKDGGYSAYVKLAQRFRETKGIIVNSFEELESYSFSSMNDGAETPPIYMVGPVLDLNGQPHPSMDQVQNDKILKWLDEQPHSSVVFLCFGSMGKFGASQLREIASGLQRSGHRFLWSVRVQQPTTIDEILPEGFLEQIGSKGMICNEWAPQVKILAHSAVGGFLSHCGWNSILESLWYGVPVATWPIYAEQQLNAFRMVREFGLAVDLRLDYKDRGDDHIVSAEEIETAVKHLMEGDKEVRKKVKEMSETARKSVEEGGSSFTAIGKLINSIIGSNYY"}, "B3": {"name": "AtUGT85A3: UDP-glycosyl transferase from Arabidopsis thaliana, amino acid sequence SEQ ID NO: 22 (protein, listed as Arabidopsis thaliana)", "chain": "MGSRFVSNEQKPHVVCVPYPAQGHINPMMKVAKLLHVKGFHVTFVNTVYNHNRLLRSRGANALDGLPSFQFESIPDGLPETGVDATQDIPALSESTTKNCLVPFKKLLQRIVTREDVPPVSCIVSDGSMSFTLDVAEELGVPEIHFWTTSACGFMAYLHFYLFIEKGLCPVKDASCLTKEYLDTVIDWIPSMNNVKLKDIPSFIRTTNPNDIMLNFVVREACRTKRASAIILNTFDDLEHDIIQSMQSILPPVYPIGPLHLLVNREIEEDSEIGRMGSNLWKEETECLGWLNTKSRNSVVYVNFGSITIMTTAQLLEFAWGLAATGKEFLWVMRPDSVAGEEAVIPKEFLAETADRRMLTSWCPQEKVLSHPAVGGFLTHCGWNSTLESLSCGVPMVCWPFFAEQQTNCKFSCDEWEVGIEIGGDVKRGEVEAVVRELMDGEKGKKMREKAVEWRRLAEKATKLPCGSSVINFETIVNKVLLGKIPNT"}, "B4": {"name": "AtUGT73B1: UDP-glycosyl transferase from Arabidopsis thaliana, amino acid sequence SEQ ID NO: 24 (protein, listed as Arabidopsis thaliana)", "chain": "MGVFGSNESSSMSIVMYPWLAFGHMTPFLHLSNKLAEKGHKIVFLLPKKALNQLEPLNLYPNLITFHTISIPQVKGLPPGAETNSDVPFFLTHLLAVAMDQTRPEVETIFRTIKPDLVFYDSAHWIPEIAKPIGAKTVCFNIVSAASIALSLVPSAEREVIDGKEMSGEELAKTPLGYPSSKVVLRPHEAKSLSFVWRKHEAIGSFFDGKVTAMRNCDAIAIRTCRETEGKFCDYISRQYSKPVYLTGPVLPGSQPNQPSLDPQWAEWLAKFNHGSVVFCAFGSQPVVNKIDQFQELCLGLESTGFPFLVAIKPPSGVSTVEEALPEGFKERVQGRGVVFGGWIQQPLVLNHPSVGCFVSHCGFGSMWESLMSDCQIVLVPQHGEQILNARLMTEEMEVAVEVEREKKGWFSRQSLENAVKSVMEEGSEIGEKVRKNHDKWRCVLTDSGFSDGYIDKFEQNLIELVKS"}, "B5": {"name": "At5g65550: UDP-glycosyl transferase from Arabidopsis thaliana, amino acid sequence SEQ ID NO: 26 (protein, listed as Arabidopsis thaliana)", "chain": "MAEPKPKLHVAVFPWLALGHMIPYLQLSKLIARKGHTVSFISTARNISRLPNISSDLSVNFVSLPLSQTVDHLPENAEATTDVPETHIAYLKKAFDGLSEAFTEFLEASKPNWIVYDILHHWVPPIAEKLGVRRAIFCTFNAASIIIIGGPASVMIQGHDPRKTAEDLIVPPPWVPFETNIVYRLFEAKRIMEYPTAGVTGVELNDNCRLGLAYVGSEVIVIRSCMELEPEWIQLLSKLQGKPVIPIGLLPATPMDDADDEGTWLDIREWLDRHQAKSVVYVALGTEVTISNEEIQGLAHGLELCRLPFFWTLRKRTRASMLLPDGFKERVKERGVIWTEWVPQTKILSHGSVGGFVTHCGWGSAVEGLSFGVPLIMFPCNLDQPLVARLLSGMNIGLEIPRNERDGLFTSASVAETIRHVVVEEEGKIYRNNAASQQKKIFGNKRLQDQYADGFIEFLENPIAGV"}, "B6": {"name": "AtUGT76B1: UDP-glycosyl transferase from Arabidopsis thaliana, amino acid sequence SEQ ID NO: 28 (protein, listed as Arabidopsis thaliana)", "chain": "METRETKPVIFLFPFPLQGHLNPMFQLANIFFNRGFSITVIHTEFNSPNSSNFPHFTFVSIPDSLSEPESYPDVIEILHDLNSKCVAPFGDCLKKLISEEPTAACVIVDALWYFTHDLTEKFNFPRIVLRTVNLSAFVAFSKFHVLREKGYLSLQETKADSPVPELPYLRMKDLPWFQTEDPRSGDKLQIGVMKSLKSSSGIIFNAIEDLETDQLDEARIEFPVPLFCIGPFHRYVSASSSSLLAHDMTCLSWLDKQATNSVIYASLGSIASIDESEFLEIAWGLRNSNQPFLWVVRPGLIHGKEWIEILPKGFIENLEGRGKIVKWAPQPEVLAHRATGGFLTHCGWNSTLEGICEAIPMICRPSFGDQRVNARYINDVWKIGLHLENKVERLVIENAVRTLMTSSEGEEIRKRIMPMKETVEQCLKLGGSSFRNLENLIAYILSF"}, "B7": {"name": "AtUGT76D1: UDP-glycosyl transferase from Arabidopsis thaliana, amino acid sequence SEQ ID NO: 30 (protein, listed as Arabidopsis thaliana)", "chain": "MAEIRQRRVLMVPAPFQGHLPSMMNLASYLSSQGFSITIVRNEFNFKDISHNFPGIKFFTIKDGLSESDVKSLGLLEFVLELNSVCEPLLKEFLTNHDDVVDFIIYDEFVYFPRRVAEDMNLPKMVFSPSSAATSISRCVLMENQSNGLLPPQDARSQLEETVPEFHPFRFKDLPFTAYGSMERLMILYENVSNRASSSGIIHNSSDCLENSFITTAQEKWGVPVYPVGPLHMTNSAMSCPSLFEEERNCLEWLEKQETSSVIYISMGSLAMTQDIEAVEMAMGFVQSNQPFLWVIRPGSINGQESLDFLPEQFNQTVTDGRGFVVKWAPQKEVLRHRAVGGFWNHGGWNSCLESISSGVPMICRPYSGDQRVNTRLMSHVWQTAYEIEGELERGAVEMAVRRLIVDQEGQEMRMRATILKEEVEASVTTEGSSHNSLNNLVHAIMMQIDEQ"}}, "data": [{"tested_on": "CN3 yeast strain host cells", "assay": "Detection of glycosylated cannabinoids and cannabinoid precursors in yeast cells expressing UDP-glycosyl transferase (HPLC-MS)", "format": "cell-based", "conditions": "pellet or supernatant of recombinant yeast host cells transformed with the UGT", "description": "CN3 yeast strain host cells were transformed as described in Example 1 with one of the following heterologous UGT genes: (1) AtUGT73C6, (2) AtUGT73B4, (3) AtUGT71 D1, (4) AtUGT76E12, (5) AtUGT88A1, (6) HaUGT76G1-L, (7) At5g49690, (8) AtUGT76C4, (9) CsUGT73C6, (10) SrUGT76C1, (11) AtUGT85A3, (12) AtUGT73B1, (13) Atg65550, (14) AtUGT76B1, (15) ATUGT76B1, (16) CsUGT75B2, (17) CsUGT73B4, (18) CsUGT73B1, (19) CsUGT75D1-DN11028, and (20) CsUGT71D1-DN48028. The transformed host cells were pre-grown overnight in yeast extract peptone dextrose (YPD) growth medium and then back diluted into yeast extract peptone galactose (YPG) to OD600 = 0.2. […] Strains were incubated for 20 h at 28° C. rotating at 600 RPM in an EPOCH|2 microplate reader (BioTek). Subsequently, samples were treated with an extraction solvent (80 % Acetonitrile, 20 % Methanol) for 1 hour rotating at 100 RPM. After 20 minutes centrifugation at 12,000 RPM, the supernatant was filtered with a basix 13 mm syringe filter (0.22 µm pore size, Nylon membrane) and transferred to a new tube for further analysis.\nGlycosylated cannabinoid compounds and glycosylated cannabinoid precursor compounds were assayed in the supernatant and the cellular pellet employing HPLC and HPLC-MS analysis. HPLC and HPLC-MS analysis was carried out as described below to detect the following glycosylated cannabinoid and cannabinoid precursor compounds: CBGA monoglucoside, CBGA diglucoside, CBDA monoglucoside, CBDA diglucoside, CBGA glucuronic acid, CBD monoglucoside, CBD diglucoside, olivetolic acid monoglucoside (“OliAcid monoglucoside”), olivetolic acid diglucoside (“OliAcid diglucoside”).\nHPLC analysis was carried out on an Agilent Technologies 1290 Infinity system, consisting of a vacuum degasser, a binary pump, a thermostated autosampler, a thermostated column compartment and a diode array detector (DAD). A Zorbax Eclipse Plus EC-18 column (2.1 × 50 mm, 1.8 µm, Agilent, USA) was used with a mobile phase composed of 0.1% formic acid in both (A) water with 0.2 % Formic Acid and (B) Acetonitrile with 0.2 % Formic Acid. The chromatographic conditions were set as follows: 0.0-8.0 min linear gradient from 5 to 95% B; 8.1-9.09 min […], 9.10-11.0 min 5 to 95% A for equilibration of the column with the initial conditions. The flow rate was set at 0.4 ml/min. The column temperature was set at 40° C. The sample injection volume was 5 µL. The UV/DAD acquisitions were carried out in the range 190-400 nm and chromatograms were acquired at 265 and 350 nm.\nHPLC-MS analysis was carried out to confirm the identity of the HPLC peaks using an Agilent Technologies 6530 Accurate-Mass quadrupole time of flight (QToF) mass spectrometer operating in negative ionization (ESI -) mode. The mass spectrometer experimental parameters were set as follows: the capillary voltage was 3.5 kV, the nebulizer (N2) pressure was 35 psi, the drying gas temperature was 350° C., the drying gas flow was 11 L/min and the skimmer voltage was 65 V. Data were acquired by Agilent Mass Hunter software. The mass spectrometer was operated in full-scan mode in the m/z range 50-1100. Extracted ion chromatograms (EICs) were obtained with an accuracy of 10 ppm m/z from total ion chromatogram (TIC) employing the m/z corresponding to the molecular ions [M-H]^- 385.1504 for Olivetolic Acid Mono-Glucoside, 547.2032 for Olivetolic Acid di-Glucoside, 521.2756 for CBGA Mono-Glucoside, 683.3284 for CBGA Di-Glucoside, 535.2549 for CBGA Glucuronic Acid, 519.2600 for CBDA Mono-Glucoside, 475.2701 for CBD Mono-Glucoside, 637.3302 for CBD Di-Glucoside.\nThe glycosylated cannabinoid compounds and glycosylated cannabinoid precursor compounds were detected in a relative and semi-quantitative fashion. […]", "values": [{"molecule": "B1", "production of glycosylated cannabinoids or cannabinoid precursor compounds": "No production"}, {"molecule": "B2", "production of glycosylated cannabinoids or cannabinoid precursor compounds": "No production"}, {"molecule": "B3", "production of glycosylated cannabinoids or cannabinoid precursor compounds": "No production"}, {"molecule": "B4", "production of glycosylated cannabinoids or cannabinoid precursor compounds": "No production"}, {"molecule": "B5", "production of glycosylated cannabinoids or cannabinoid precursor compounds": "No production"}, {"molecule": "B6", "production of glycosylated cannabinoids or cannabinoid precursor compounds": "No production"}, {"molecule": "B7", "production of glycosylated cannabinoids or cannabinoid precursor compounds": "No production"}]}]}
